The target of one experiment is VcNorM (UniProt Q9KRU4). Briefly: SEC. (SEC sorts molecules by how far they enter the pores of the column.)
In experiment [1] the target is Lyso-Nb_4 R45A (alpaca scaffold, camel CDRs). Briefly: SPR.
Experiment [2] has as its target Lyso-Nb_4 V89A (alpaca scaffold, camel CDRs). Kind of experiment: SPR. (SPR reads the build-up and loss of mass on a sensor chip optically.)
For experiment [3], the target named is Lyso-Nb_4 L11A (alpaca scaffold, camel CDRs). Briefly: SPR.
In experiment [4] the target is Lyso-Nb_4 P41A (alpaca scaffold, camel CDRs). Kind of experiment: SPR.
Experiment [5] deals with Lyso-Nb_4 K43A (alpaca scaffold, camel CDRs). Kind of experiment: SPR.
Another experiment deals with TC-Nb4 (alpaca). Kind of experiment: SPR.
In experiment [6] the target is Lyso-Nb_4 W103A (alpaca scaffold, camel CDRs). Briefly: SPR.
The target of experiment [7] is Lyso-Nb_4 Y91A (alpaca scaffold, camel CDRs). Briefly: SPR.
The target in experiment [8] is Lyso-Nb_4 S112A (alpaca scaffold, camel CDRs). Kind of experiment: SPR.
The next experiment deals with lysozyme (Gallus gallus, UniProt P00698). Briefly: SEC.

B1: NorM-Nb17_4 (VHH)
VHH: QRQLVESGGGLVQPGGSLRLSCAASGIIFKINDMGWFRQAPGKEREGVAGITSGGRTNYADSVKGRFIISRDNVKNTVYLQMNSLEPEDTAVYYCKSDGLISYAASQLSTYWGKGTPVTVSS
With B1, in the experiment with VcNorM, the binding result is listed as “binds”.

B2: NabFab (Fab, V domains shown)
VH: EVQLVESGGGLVQPGGSLRLSCAASGFNFSYYSIHWVRQAPGKGLEWVAYISSSSSYTSYADSVKGRFTISADTSKNTAYLQMNSLRAEDTAVYYCARGYQYWQYHASWYWNGGLDYWGQGTLVTVSS
VL: DIQMTQSPSSLSASVGDRVTITCRASQSVSSAVAWYQQKPGKAPKLLIYSASSLYSGVPSRFSGSRSGTDFTLTISSLQPEDFATYYCQQSSSSLITFGQGTKVEIK
In the case of B2, the fold higher KD against Lyso-Nb 4 in experiment [1] was over 40 fold; in experiment [7] it was over 25 fold. Moreover, the fold reduction of affinity against Lyso-Nb 4 in [2] was 600 fold; in [3] it was under 5 fold; in experiment [4] it was 400 fold; in experiment [5] it was under 5 fold; in experiment [6], under 5 fold; in [8], under 5 fold. In addition, the equilibrium dissociation constant (Kd) – broadly, the constant that tells how readily two partners part at equilibrium – with TC-Nb4 (alpaca) stood at 0.86 nM.

B3: Lyso-Nb_4 (VHH)
VHH: QRQLVESGGGLVQPGGSLRLSCAASGSTDSIEYMTWFRQAPGKEREGVAALYTHTGNTYYADSVKGRFIISRDKAKNMVYLQMNSLEPEDTAVYYCGATRKYVPVRFALDQSSYDYWGKGTPVTVSS
On to B3, for which the binding result in the experiment with lysozyme is “binds”.

The record behind these values is doi:10.1101/2021.08.20.457137 (bioRxiv, 2021).
